Measurements: patent US20100190693

Columns and labels:
[1] = target: GST-TORC2 (aa 161-181) Ser171Ala, Q53ET0
[2] = target: T1, GST-TORC2 (aa 161-181), wild-type, Q53ET0 (not fully specified)
T1 chain: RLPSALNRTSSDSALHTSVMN

Chain of GST-TORC2 (aa 161-181) Ser171Ala, Q53ET0 (Q53ET0 whole entry S171A, looked up, the tested form may be a part): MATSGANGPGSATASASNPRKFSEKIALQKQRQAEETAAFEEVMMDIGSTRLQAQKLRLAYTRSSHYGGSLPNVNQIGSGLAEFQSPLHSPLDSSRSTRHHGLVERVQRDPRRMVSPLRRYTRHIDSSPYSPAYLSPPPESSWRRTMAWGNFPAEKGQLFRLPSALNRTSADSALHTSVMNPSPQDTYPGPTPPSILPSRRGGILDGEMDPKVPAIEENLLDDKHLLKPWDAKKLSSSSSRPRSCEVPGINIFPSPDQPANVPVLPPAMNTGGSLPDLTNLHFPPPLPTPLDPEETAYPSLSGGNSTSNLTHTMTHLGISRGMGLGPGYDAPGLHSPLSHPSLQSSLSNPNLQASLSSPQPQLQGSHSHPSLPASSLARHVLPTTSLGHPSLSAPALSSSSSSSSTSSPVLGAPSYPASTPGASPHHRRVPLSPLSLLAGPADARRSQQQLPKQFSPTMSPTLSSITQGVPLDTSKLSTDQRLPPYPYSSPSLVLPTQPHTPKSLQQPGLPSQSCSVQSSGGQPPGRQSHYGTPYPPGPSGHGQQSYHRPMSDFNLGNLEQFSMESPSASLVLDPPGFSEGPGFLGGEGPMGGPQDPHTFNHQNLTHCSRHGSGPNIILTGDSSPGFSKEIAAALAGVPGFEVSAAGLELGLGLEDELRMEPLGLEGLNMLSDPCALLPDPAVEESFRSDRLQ

B1: Salt Inducible Kinase 2 (SIK2) (protein)
chain: MVMADGPRHLQRGPVRVGFYDIEGTLGKGNFAVVKLGRHRITKTEVAIKIIDKSQLDAVNLEKIYREVQIMKMLDHPHIIKLYQVMETKSMLYLVTEYAKNGEIFDYLANHGRLNESEARRKFWQILSAVDYCHGRKIVHRDLKAENLLLDNNMNIKIADFGFGNFFKSGELLATWCGSPPYAAPEVFEGQQYEGPQLDIWSMGVVLYVLVCGALPFDGPTLPILRQRVLEGRFRIPYFMSEDCEHLIRRMLVLDPSKRLTIAQIKEHKWMLIEVPVQRPVLYPQEQENEPSIGEFNEQVLRLMHSLGIDQQKTIESLQNKSYNHFAAIYFLLVERLKSHRSSFPVEQRLDGRQRRPSTIAEQTVAKAQTVGLPVTMHSPNMRLLRSALLPQASNVEAFSFPASGCQAEAAFMEEECVDTPKVNGCLLDPVPPVLVRKGCQSLPSNMMETSIDEGLETEGEAEEDPAHAFEAFQSTRSGQRRHTLSEVTNQLVVMPGAGKIFSMNDSPSLDSVDSEYDMGSVQRDLNFLEDNPSLKDIMLANQPSPRMTSPFISLRPTNPAMQALSSQKREVHNRSPVSFREGRRASDTSLTQGIVAFRQHLQNLARTKGILELNKVQLLYEQIGPEADPNLAPAAPQLQDLASSCPQEEVSQQQESVSTLPASVHPQLSPRQSLETQYLQHRLQKPSLLSKAQNTCQLYCKEPPRSLEQQLQEHRLQQKRLFLQKQSQLQAYFNQMQIAESSYPQPSQQLPLPRQETPPPSQQAPPFSLTQPLSPVLEPSSEQMQYSPFLSQYQEMQLQPLPSTSGPRAAPPLPTQLQQQQPPPPPPPPPPRQPGAAPAPLQFSYQTCELPSAASPAPDYPTPCQYPVDGAQQSDLTGPDCPRSPGLQEAPSSYDPLALSELPGLFDCEMLDAVDPQHNGYVLVN
[1]
  in vitro kinase assay, 32P-labeling: SIK2 was found to phosphorylate wild-type but not Ser171Ala mutant TORC2 in vitro
[2]
  in vitro kinase assay, 32P-labeling: SIK2 was found to phosphorylate wild-type but not Ser171Ala mutant TORC2 in vitro
